We go through 5 sequences from the supplement of paper PMC11316812.

± gives the standard deviation of the averaged measurements.

In one series the test system is hTERT-HMEC. In words: percentage of EdU-negative (G0-arrested) nuclei per well, 72 h; higher = more G0 arrest. The conditions noted are these: reference: sequence is the full UniProt precursor, the tested protein was the secreted form or ectodomain.
The next series relates to MCF7. The description is as above. The conditions noted are these: reference: sequence is the full UniProt precursor, the tested protein was the secreted form or ectodomain.
[1] abbreviates: protein concentration 0.0142825 µM.
Where [2] appears, read: protein concentration 0.142825 µM.
The mark [3] stands for this setting: protein concentration 0.0225 µM.
Setting [4] is: protein concentration 0.015525 µM.
The mark [5] stands for this setting: protein concentration 0.15525 µM.
Setting [6] is: protein concentration 0.0257143 µM.
Setting [7] is: protein concentration 0.257143 µM.
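Note: secreted proteins added to cultured cells, EdU pulse at the end, nuclei found by Hoechst imaging, EdU status from nuclear versus surrounding ring intensity ratio, PBS as neutral control.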

In the case of “MKLCVTVLSLLMLVAAFCSPALSAPMGSDPPTACCFSYTARKLPRNFVVDYYETSSLCSQPAVVFQTKRSKQVCADPSESWVQEYVYDLELN”, the “percentage of EdU-negative” value in the series on hTERT-HMEC (setting [1]) amounted to 5.53 ± 0.77%; in the series with hTERT-HMEC (setting [2]) it was 5.12 ± 0.26%; in the series on MCF7 (setting [1]) it was 24.5 ± 1.1%; in the series on MCF7 (setting [2]), 25.7 ± 0.56%.

For the sequence “MMSFVQKGSWLLLALLHPTIILAQQEAVEGGCSHLGQSYADRDVWKPEPCQICVCDSGSVLCDDIICDDQELDCPNPEIPFGECCAVCPQPPTAPTRPPNGQGPQGPKGDPGPPGIPGRNGDPGIPGQPGSPGSPGPPGICESCPTGPQNYSPQYDSYDVKSGVAVGGLAGYPGPAGPPGPPGPPGTSGHPGSPGSPGYQGPPGEPGQAGPSGPPGPPGAIGPSGPAGKDGESGRPGRPGERGLPGPPGIKGPAGIPGFPGMKGHRGFDGRNGEKGETGAPGLKGENGLPGENGAPGPMGPRGAPGERGRPGLPGAAGARGNDGARGSDGQPGPPGPPGTAGFPGSPGAKGEVGPAGSPGSNGAPGQRGEPGPQGHAGAQGPPGPPGINGSPGGKGEMGPAGIPGAPGLMGARGPPGPAGANGAPGLRGGAGEPGKNGAKGEPGPRGERGEAGIPGVPGAKGEDGKDGSPGEPGANGLPGAAGERGAPGFRGPAGPNGIPGEKGPAGERGAPGPAGPRGAAGEPGRDGVPGGPGMRGMPGSPGGPGSDGKPGPPGSQGESGRPGPPGPSGPRGQPGVMGFPGPKGNDGAPGKNGERGGPGGPGPQGPPGKNGETGPQGPPGPTGPGGDKGDTGPPGPQGLQGLPGTGGPPGENGKPGEPGPKGDAGAPGAPGGKGDAGAPGERGPPGLAGAPGLRGGAGPPGPEGGKGAAGPPGPPGAAGTPGLQGMPGERGGLGSPGPKGDKGEPGGPGADGVPGKDGPRGPTGPIGPPGPAGQPGDKGEGGAPGLPGIAGPRGSPGERGETGPPGPAGFPGAPGQNGEPGGKGERGAPGEKGEGGPPGVAGPPGGSGPAGPPGPQGVKGERGSPGGPGAAGFPGARGLPGPPGSNGNPGPPGPSGSPGKDGPPGPAGNTGAPGSPGVSGPKGDAGQPGEKGSPGAQGPPGAPGPLGIAGITGARGLAGPPGMPGPRGSPGPQGVKGESGKPGANGLSGERGPPGPQGLPGLAGTAGEPGRDGNPGSDGLPGRDGSPGGKGDRGENGSPGAPGAPGHPGPPGPVGPAGKSGDRGESGPAGPAGAPGPAGSRGAPGPQGPRGDKGETGERGAAGIKGHRGFPGNPGAPGSPGPAGQQGAIGSPGPAGPRGPVGPSGPPGKDGTSGHPGPIGPPGPRGNRGERGSEGSPGHPGQPGPPGPPGAPGPCCGGVGAAAIAGIGGEKAGGFAPYYGDEPMDFKINTDEIMTSLKSVNGQIESLISPDGSRKNPARNCRDLKFCHPELKSGEYWVDPNQGCKLDAIKVFCNMETGETCISANPLNVPRKHWWTDSSAEKKHVWFGESMDGGFQFSYGNPELPEDVLDVHLAFLRLLSSRASQNITYHCKNSIAYMDQASGNVKKALKLMGSNEGEFKAEGNSKFTYTVLEDGCTKHTGEWSKTVFEYRTRKAVRLPIVDIAPYDIGGPDQEFGVDVGPVCFL”, the “percentage of EdU-negative” value in the series with hTERT-HMEC (setting [3]) was 4.96 ± 0.66%; with hTERT-HMEC (protein concentration 0.225 µM), 6.99 ± 0.87%; in the series with MCF7 (setting [3]) it was 26.55 ± 0.19%; with MCF7 (protein concentration 0.225 µM) it was 27.4 ± 1.2%.

With “MKRLVCVLLVCSSAVAQLHKDPTLDHHWHLWKKTYGKQYKEKNEEAVRRLIWEKNLKFVMLHNLEHSMGMHSYDLGMNHLGDMTSEEVMSLMSSLRVPSQWQRNITYKSNPNRILPDSVDWREKGCVTEVKYQGSCGACWAFSAVGALEAQLKLKTGKLVSLSAQNLVDCSTEKYGNKGCNGGFMTTAFQYIIDNKGIDSDASYPYKAMDQKCQYDSKYRAATCSKYTELPYGREDVLKEAVANKGPVSVGVDARHPSFFLYRSGVYYEPSCTQNVNHGVLVVGYGDLNGKEYWLVKNSWGHNFGEEGYIRMARNKGNHCGIASFPSYPEI”, the “percentage of EdU-negative” value amounted to 4.72 ± 0.47% in the series on hTERT-HMEC (setting [3]), 9.97 ± 2.1% in the series with hTERT-HMEC (protein concentration 0.225 µM), 25.8 ± 0.69% in the series with MCF7 (setting [3]) and 28.92 ± 0.25% with MCF7 (protein concentration 0.225 µM).

Regarding “MRPQELPRLAFPLLLLLLLLLPPPPCPAHSATRFDPTWESLDARQLPAWFDQAKFGIFIHWGVFSVPSFGSEWFWWYWQKEKIPKYVEFMKDNYPPSFKYEDFGPLFTAKFFNANQWADIFQASGAKYIVLTSKHHEGFTLWGSEYSWNWNAIDEGPKRDIVKELEVAIRNRTDLRFGLYYSLFEWFHPLFLEDESSSFHKRQFPVSKTLPELYELVNNYQPEVLWSDGDGGAPDQYWNSTGFLAWLYNESPVRGTVVTNDRWGAGSICKHGGFYTCSDRYNPGHLLPHKWENCMTIDKLSWGYRREAGISDYLTIEELVKQLVETVSCGGNLLMNIGPTLDGTISVVFEERLRQMGSWLKVNGEAIYETHTWRSQNDTVTPDVWYTSKPKEKLVYAIFLKWPTSGQLFLGHPKAILGATEVKLLGHGQPLNWISLEQNGIMVELPQLTIHQMPCKWGWALALTNVI [Q9BTY2]”, the “percentage of EdU-negative” value in the series on hTERT-HMEC (setting [4]) came out at 4.67 ± 0.2%; with hTERT-HMEC (setting [5]), 5.55 ± 0.98%; in the series on MCF7 (setting [4]), 22.7 ± 0.71%; with MCF7 (setting [5]), 27.2 ± 2.1%.

Regarding “MALRRSMGRPGLPPLPLPPPPRLGLLLAALASLLLPESAAAGLKLMGAPVKLTVSQGQPVKLNCSVEGMEEPDIQWVKDGAVVQNLDQLYIPVSEQHWIGFLSLKSVERSDAGRYWCQVEDGGETEISQPVWLTVEGVPFFTVEPKDLAVPPNAPFQLSCEAVGPPEPVTIVWWRGTTKIGGPAPSPSVLNVTGVTQSTMFSCEAHNLKGLASSRTATVHLQALPAAPFNITVTKLSSSNASVAWMPGADGRALLQSCTVQVTQAPGGWEVLAVVVPVPPFTCLLRDLVPATNYSLRVRCANALGPSPYADWVPFQTKGLAPASAPQNLHAIRTDSGLILEWEEVIPEAPLEGPLGPYKLSWVQDNGTQDELTVEGTRANLTGWDPQKDLIVRVCVSNAVGCGPWSQPLVVSSHDRAGQQGPPHSRTSWVPVVLGVLTALVTAAALALILLRKRRKETRFGQAFDSVMARGEPAVHFRAARSFNRERPERIEATLDSLGISDELKEKLEDVLIPEQQFTLGRMLGKGEFGSVREAQLKQEDGSFVKVAVKMLKADIIASSDIEEFLREAACMKEFDHPHVAKLVGVSLRSRAKGRLPIPMVILPFMKHGDLHAFLLASRIGENPFNLPLQTLIRFMVDIACGMEYLSSRNFIHRDLAARNCMLAEDMTVCVADFGLSRKIYSGDYYRQGCASKLPVKWLALESLADNLYTVQSDVWAFGVTMWEIMTRGQTPYAGIENAEIYNYLIGGNRLKQPPECMEDVYDLMYQCWSADPKQRPSFTCLRMELENILGQLSVLSASQDPLYINIERAEEPTAGGSLELPGRDQPYSGAGDGSGMGAVGGTPSDCRYILTPGGLAEQPGQAEHQPESPLNETQRLLLLQQGLLPHSSC”, the “percentage of EdU-negative” value with hTERT-HMEC (setting [6]) worked out at 3.99 ± 0.11%; in the series with hTERT-HMEC (setting [7]), 5.87 ± 0.091%; with MCF7 (setting [6]), 25.83 ± 0.093%; with MCF7 (setting [7]) it was 27.3 ± 1.4%.
